We go through 15 molecules from paper PMC7366379 (Journal of the American Chemical Society, 2020).

What is called Kd is the constant that tells how readily two partners part at equilibrium. Usually solubility stands for the dissolved amount per volume that the medium holds. Usually koff stands for the first-order rate constant of dissociation. A higher koff goes with fast dissociation. As a reminder, the kon is the second-order rate constant of association. Lower therefore signals slower complex formation.

Several values for one entry are separate records, joined by “and”; a condition that tells them apart may be missing. Identical values can stand only once. Like-named read-outs stand apart in the source and are kept apart here. Side chains are listed from the residue outwards. Ends that are not written are not given here. Peptide text beside a SMILES is read from it. * marks the point of attachment. Biotin = O=C1N[C@H]2[C@H](CS[C@H]2CCCCC(=O)*)N1 A value given as a limit tells only on which side of the number the result lay.

Series [1] has as its target OmpF porin trimer (outer-membrane protein F) (Escherichia coli) (UniProt P02931). In words: single-channel electrical recording in planar lipid bilayer.
Series [2] has the same target. Described as above. The source holds these as a separate data set.
The target is the same in series [3]. In words: single-channel electrical recording in planar lipid bilayer; single OmpF trimer in a DPhPC bilayer; binder added to the extracellular side; -100 mV (as stated for Figures 2, 3 and 5); 20 mM potassium phosphate pH 6.4, 0.1 M KCl, 20.5 °C.
The target in another series is OmpF (Escherichia coli) (UniProt P02931). In words: ITC. To be noted: cited from earlier work.
The target of series [4] is T1, OmpF (Escherichia coli, UniProt P02931).
T1 sequence (P02931 23-362): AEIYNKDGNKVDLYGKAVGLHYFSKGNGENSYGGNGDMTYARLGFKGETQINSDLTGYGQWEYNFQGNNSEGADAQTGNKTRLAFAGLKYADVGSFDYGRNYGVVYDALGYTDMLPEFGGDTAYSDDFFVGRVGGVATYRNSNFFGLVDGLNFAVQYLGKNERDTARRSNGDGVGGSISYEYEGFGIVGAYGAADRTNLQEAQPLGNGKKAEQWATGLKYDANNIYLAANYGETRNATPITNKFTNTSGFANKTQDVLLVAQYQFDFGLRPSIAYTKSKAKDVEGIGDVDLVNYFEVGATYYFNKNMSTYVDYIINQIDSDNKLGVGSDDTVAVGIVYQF
In kind it is binding. On the set-up: made in house; host or cells: E. coli BZB1107 (ompF-, ompC-), plasmid pNGH72. To be noted: for k1 / k2 / k3 / k–1 / k–2 / k–3: extrapolated to 0 mV; for k1: DPhPC bilayer, 20 mM potassium phosphate pH 6.4, 0.1 M KCl, 20.5 °C, at least three independent experiments; for k2 / k3 / k–1 / k–2 / k–3: pH 6.4, 0.1 M KCl.

Series [5] can be described thus: Solubility of IUTD constructs. Format: physicochemical.
Series [6] concerns the target T1, OmpF.
For series [7], the target named is AEDANS-labelled OBS1-fusion protein (colicin E9 OmpF-binding site 1 fused to a carrier) (UniProt P09883). In words: stopped-flow FRET (OmpF tryptophans to AEDANS). To be noted: pH 6.5, 4 °C, no added salt stated (20 mM potassium phosphate only).
In series [8] the target is T2, OmpF porin trimer (outer-membrane protein F) (Escherichia coli, UniProt P02931 23-362).
T2 sequence (looked up): T1 sequence (P02931 23-362)
In words: single-channel electrical recording in planar lipid bilayer; single OmpF trimer in a DPhPC bilayer; mSA-capped peptide added to the periplasmic side; +100 mV (where stated); 20 mM potassium phosphate pH 6.4, 0.1 M KCl, 20.5 °C. As to conditions: both partners purified.

Series [9] deals with T2, OmpF porin trimer (outer-membrane …). In words: single-channel electrical recording in planar lipid bilayer; single OmpF trimer in a DPhPC bilayer; free peptide added to the periplasmic (trans) side, positive potentials; constants of Table 1 extrapolated to 0 mV, Kd for a single OmpF subunit; 20 mM potassium phosphate pH 6.4, 0.1 M KCl, 20.5 °C. To be noted: both partners purified.

For series [10] the target is unchanged. In words: single-channel electrical recording in planar lipid bilayer; single OmpF trimer in a DPhPC bilayer; free peptide added to the extracellular (cis) side, negative potentials; constants of Table 1 extrapolated to 0 mV, Kd for a single OmpF subunit; 20 mM potassium phosphate pH 6.4, 0.1 M KCl, 20.5 °C. As to conditions: both partners purified.
Series [11] deals with T3, OmpF porin trimer (E. coli, UniProt P02931 23-362).
T3 sequence (looked up): T1 sequence (P02931 23-362)
In words: single-channel electrical recording in planar lipid bilayers; current-voltage plots (-100 to +100 mV) of individual OmpF pores before and after addition of the binder to the extracellular side. As to conditions: both partners purified.

Series [12] deals with T2, OmpF porin trimer (outer-membrane …). In words: single-channel electrical recording in planar lipid bilayer; single OmpF trimer in a DPhPC bilayer; binder added to the extracellular side; -100 mV (as stated for Figures 2, 3 and 5); 20 mM potassium phosphate pH 6.4, 0.1 M KCl, 20.5 °C. To be noted: both partners purified.
For series [13], the target named is T3, OmpF porin trimer. In words: single-channel electrical recording in planar lipid bilayers; OmpF trimer with two subunits already occluded by untagged IUTD (added to the extracellular side at -100 mV, rest removed by buffer exchange); 1 µM peptide then added to the periplasmic side at +50 mV. As to conditions: both partners purified.
For series [14], the target named is T3, OmpF porin trimer. In words: single-channel electrical recording in planar lipid bilayers; single OmpF trimer in a DPhPC bilayer; peptide added to the extracellular side; phosphate buffer pH 6.4, 100 mM KCl; rate constants at 0 mV by extrapolation from negative applied potentials; Kd for the OmpF monomer (k-1 divided by one-third of k1). As to conditions: both partners purified.

Series [15] deals with T2, OmpF porin trimer (outer-membrane …). In words: single-channel electrical recording in planar lipid bilayer; single OmpF trimer in a DPhPC bilayer; free peptide added to the extracellular (cis) side, negative potentials; constants of Table 1 extrapolated to 0 mV, Kd for a single OmpF subunit; 20 mM potassium phosphate pH 6.4, 0.1 M KCl, 20.5 °C. As to conditions: both partners purified. This is another data set of the same source.

For series [16] the target is unchanged. In words: single-channel electrical recording in planar lipid bilayer; single OmpF trimer in a DPhPC bilayer; free peptide added to the periplasmic (trans) side, positive potentials; constants of Table 1 extrapolated to 0 mV, Kd for a single OmpF subunit; 20 mM potassium phosphate pH 6.4, 0.1 M KCl, 20.5 °C. As to conditions: both partners purified. The source holds these as a separate data set.

Where [17] appears, read: peptide from the periplasmic side, ± s.d., at least three experiments.
Where [18] appears, read: peptide from the extracellular side, ± s.d., at least three experiments.

Chain of AEDANS-labelled OBS1-fusion protein (colicin E9 OmpF-binding site 1 fused to a carrier) (P09883 whole entry, the tested form may be a part): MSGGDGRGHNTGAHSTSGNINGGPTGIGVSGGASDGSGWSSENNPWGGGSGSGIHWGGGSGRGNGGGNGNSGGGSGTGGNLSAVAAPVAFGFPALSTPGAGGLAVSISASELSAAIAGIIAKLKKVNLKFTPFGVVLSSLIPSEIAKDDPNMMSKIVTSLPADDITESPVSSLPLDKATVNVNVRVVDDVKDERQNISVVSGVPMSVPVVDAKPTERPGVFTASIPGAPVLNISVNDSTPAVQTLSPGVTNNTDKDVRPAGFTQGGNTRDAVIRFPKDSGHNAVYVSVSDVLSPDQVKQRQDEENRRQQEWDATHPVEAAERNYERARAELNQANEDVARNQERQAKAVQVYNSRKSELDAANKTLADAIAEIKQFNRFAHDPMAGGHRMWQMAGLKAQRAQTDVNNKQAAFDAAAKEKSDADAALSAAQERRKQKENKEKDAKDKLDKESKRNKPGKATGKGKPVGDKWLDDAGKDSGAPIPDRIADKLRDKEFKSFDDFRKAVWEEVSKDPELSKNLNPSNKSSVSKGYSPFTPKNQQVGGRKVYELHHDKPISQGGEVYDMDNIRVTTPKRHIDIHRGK

In series [1], “IUTD-fusion (ColE9_(1–83)-TEV-E9 DNase·Im9His6) (from UniProt P09883 1-83; P13479 1-86) (complex)” gave a k01 (association with the first subunit, at 0 mV) of 9800 M⁻¹ s⁻¹ and an other of 181 s⁻¹. In [2], this molecule yielded a k21' (unbinding of OBS1 from the second subunit, at 0 mV) of 3.9 s⁻¹ and an other of 5300 s⁻¹. In series [3], this molecule had an effective molarity (EM) of 0.9 mM and a koff (failed attempts at threading during the latency) of 300 s⁻¹.

For “Colicin E9 OBS2 54-63 (from UniProt P09883)”, the Kd with OmpF (Escherichia coli) was 24 µM.

As to “Colicin E9 OBS1 2-18 (from UniProt P09883)”, the Kd in the series with OmpF (Escherichia coli) was 1.8 µM.

For `C[C@H](NC(=O)CNC(=O)[C@@H](NC(=O)[C@H](CC(N)=O)NC(=O)[C@H](Cc1c[nH]cn1)NC(=O)CNC(=O)[C@H](CCCNC(=N)N)NC(=O)CNC(=O)[C@H](CC(=O)O)NC(=O)CNC(=O)CNC(=O)[C@@H](N)CO)[C@@H](C)O)C(=O)N[C@@H](Cc1c[nH]cn1)C(=O)N[C@@H](CO)C(=O)N[C@H](C(=O)N[C@@H](CO)C(=O)NCC(N)=O)[C@@H](C)O` [OBS1_2–18] (H-SGGDGRGHNTGAHSTSG-NH2), the k1 on OmpF [4] (peptide from the periplasmic side, ± s.d.) is reported as 9.6 ± 0.60 10^6 M^–1 s^–1. In addition, on OmpF [4] (setting [17]), the k2 is on record as 6.1 ± 0.42 10^6 M^–1 s^–1, the k3 is on record as 3.2 ± 0.25 10^6 M^–1 s^–1, the “k–1” value was 43 ± 1.5 s^–1 and the “k–2” value was 78 ± 3.9 s^–1. In addition, at OmpF [4] (setting [17]), the “k–3” value is given as 111 ± 6.6 s^–1.

With ColE9_2–83-ENLYFQ [IUTD], the solubility in series [5] was not above 5 µM. Further, the “k12′ (rebinding)” value on OmpF [6] is “≈ 10^3 s^–1”. Also, at OmpF [6] (SD), the “Association with a first subunit: k01” value was 6.3 ± 1.9 104 M-1s-1 and 10 ± 4.1 104 M-1s-1; the “Initial binding of the OBS1 sequence to a second subunit: k12” value was 58 ± 13 s⁻¹ and 38 ± 17 s⁻¹; the “Rebinding of the OBS1 sequence to a second subunit: k12’” value is 2200 ± 270 s⁻¹ and 1400 ± 340 s⁻¹; the “Unbinding of the OBS1 sequence from the second subunit: k21” value was 2.6 ± 1.1 s⁻¹ and 3.4 ± 0.7 s⁻¹. For the same molecule, on OmpF [6] (pH 6.4), the “k01, association with the first OmpF subunit” value is recorded as “≈ 10^4 M^–1 s^–1”; the “k12, initial binding of OBS1 to the second OmpF subunit” value is “≈ 10 ^2 s^–1”; the “occlusion of OmpF subunits after addition to the extracellular side (in words)” value was “sequential occlusion of two OmpF subunits”.

As for OmpF porin (outer membrane protein F), in series [7], the “k1 (association rate constant)” value is 9.80 ± 0.31 μM^–1 s^–1 and the “k–1 (dissociation rate constant)” value is 3.22 ± 0.03 s^–1.

`CC[C@H](C)[C@H](NC(C)=O)C(=O)N[C@@H](Cc1c[nH]cn1)C(=O)N[C@@H](Cc1c[nH]c2ccccc12)C(=O)NCC(=O)NCC(=O)NCC(=O)N[C@@H](CO)C(=O)NCC(=O)N[C@@H](CCCNC(=N)N)C(=O)NCC(N)=O` [OBS2_54–63] (Ac-IHWGGGSGRG-NH2): on OmpF [4] (OBS2 peptide, PLB recording), the “higher affinity from the periplasmic side than from the extracellular side” value was found to be 200 times and the “slower dissociation when added to the periplasmic side than to the extracellular side” value is 4 orders of magnitude. The k1 at OmpF [4] (peptide from the extracellular side, ± s.d.) was 4.0 ± 0.60 10^6 M^–1 s^–1. Further, the k3 on OmpF [4] (peptide from the extracellular side, fewer events (<100), error relatively large) was 0.97 ± 0.50 ^b 10^6 M^–1 s^–1. At OmpF [4] (setting [18]), the k2 is 2.2 ± 0.64 10^6 M^–1 s^–1, the “k–1” value is 1.3 ± 0.10 × 10^4 s^–1, the “k–2” value is recorded as 2.5 ± 0.34 × 10^4 s^–1 and the “k–3” value is on record as 3.2 ± 0.47 × 10^4 s^–1.

B1: mSA–OBS2 (Biotin-HPDP-Cys-Linker-OBS2_(54-63) bound to monovalent streptavidin) (peptide)
peptide: C([HPDP-Biotin])GGSSGGSSGGSSIHWGGGSGRG
modifications: also: bound to monovalent streptavidin
For B1, in series [8], the binding result is on record as “binds”.

B2: OBS2_(54-63) peptide (acetyl-OBS2_(54-63)-CONH2) (peptide)
peptide: Ac-IHWGGGSGRG-NH2
Turning to B2, the results for the Kd in [9] and in series [10] were 60 µM and 11000 µM, respectively.

B3: untagged IUTD (ColE9_(2-83)-ENLYFQ) (domain or fragment)
chain: SGGDGRGHNTGAHSTSGNINGGPTGIGVSGGASDGSGWSSENNPWGGGSGSGIHWGGGSGRGNGGGNGNSGGGSGTGGNLSAENLYFQ
Take B3: in the series with OmpF porin trimer [11], the binding result is recorded as “binds”.

B4: free IUTD (ColE9_(2–83)-ENLYFQ) (domain or fragment)
chain: B3 chain
Consider B4, for which the binding result in series [12] is given as “binds”.

B5: OBS1_(2-26) peptide (NH2-OBS1_(2-26)-CONH2) (peptide, UniProt P09883 2-26, looked up)
peptide: SGGDGRGHNTGAHSTSGNINGGPTG-NH2
Consider B5, for which the binding result with OmpF porin trimer [13] is listed as “binds”.

B6: OBS1_(2-18) peptide (NH2-OBS1_(2-18)-CONH2) (peptide)
peptide: SGGDGRGHNTGAHSTSG-NH2
With B6, the Kd with OmpF porin trimer [14] was 5400 µM.

B7: OBS1_(2-18) peptide (NH2-OBS1_(2-18)-CONH2) (peptide)
peptide: H-SGGDGRGHNTGAHSTSG-NH2
Regarding B7, the Kd in series [15] was 5000 µM; in series [16], 13 µM.

B8: OBS1–mSA (OBS1_(2-18)-Linker-Cys-HPDP-Biotin bound to monovalent streptavidin) (peptide)
peptide: SGGDGRGHNTGAHSTSGSSGGSSGGSSGGC([HPDP-Biotin])
modifications: also: bound to monovalent streptavidin
For the molecule B8, in series [8], the koff is approximately 600 s⁻¹ and the kon is approximately 5e+06 M⁻¹ s⁻¹.
